Assay results reported in the nanobody polyreactivity screen of Harvey et al. (2022).

Test: yeast display, Sf9 membrane polyspecificity reagent, FACS + sequencing; frameworks hold sequencing errors
How it was run: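 Using colony PCR, genes from sorted yeast display clones were amplified, then sequenced on MiSeq at 2 × 250 and filtered by CDR length. The clones had been stained with 10% biotinylated, detergent-solubilized Sf9 membrane reagent for 1 hour at 4 °C and sorted by FACS into low and high (top ~1%) gates on anti-HA and streptavidin fluorescence. Polyreactivity labels come from the gate of origin.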

| Sequence | polyreactivity (PSR sort gate) |
| --- | --- |
| QVQLVESGGGLVQAGGSLRLSCAASGRIFWRYAMGWYRQAPGQERELVAAISRGGGRTYYADSVKGRFTSSRDNAKNTVYLQMNSLKPEDTAVYYCAARSTQGRFENWGQGTQVTVSS | high polyreactivity |
| QVQLVESGGGLVQAGGSLRLSCAASGSIFGYYAMGWYRQAPGKERELVAAITYSGGRTYYADSVKGRFTISRDNAKNTVYLQMNSLKPEDTAVYYCARAPPGDRFVRYDYWGQGTQVTVSS | high polyreactivity |
| QVQLLESGGGLVQAGGSLRLSCAASGSTFLYNAMGWYRQAPGKERELVAGIRRSGGSTYYADSVKGRFTISRDNAMNTVYLQMNSLKPEDTAVYYCNTDRTLSYQYGGYDYWGQGTQVTVSS | low polyreactivity |
| QFQLVESGGGLVQAGGSLRLSSAASGSIFRSYAMGWYRQAHGKERELVAAISSRSGSTYYADSVKGRFTISRDNAKNTVYLQMNSLKPEETAVYYCAAQHRHSYGYWGQGTQVTVSS | high polyreactivity |
| QVQLVESGGGLVQAGGSLRLSCAASGSTFPVNTMGWYRQAPGKERELVAAISSDDNTNYADSVKGRFTISRDNAKNTVYLQMNSLKPEDTEVYYCAVKGHPAYVEVPPRYAWEFDYWGQGTQVTVSS | low polyreactivity |
| QVQLVESGGGLVQAGGSLRLTCAASGSIFSYNAKGRYRQAPGKERELVAGITTGDSTNYADSVKGRFTISRDNAKNTVYLQMNCLKPEDTAVYYCAATRLVSYHYPDLDSQQGGYWGQGTQVTVSS | low polyreactivity |
| QLKLVESGGGLVQAGGSLRLSCAASGSIFDVNAMGWYREAPGKEMELVAAISDSGGSTYYADSVKGRFTISRDNAKNTVYLQMNSLKPEDTAVYYCNADWSWYHYYDCDYWGQGTQVTVSS | low polyreactivity |
| QVQLVESAGGLVQAGGSLRLSCAASGSIFSTYVMGWYRQAPGKERELVAAISRRGGSTYYADSVKGRFTISRDNAKNTVYLQMNSLKPEDTAVSYCAADGTVGRRDYWGQGTQVTVSS | high polyreactivity |
| QVQLVESGGGLVQAGGSLRLSCAASGFTFASYAMGWYRQAPGKERELVAAITRRGGSTNYADSVKGRFTISRDNAKNTVFLQMISLKPEDTAVYYCNDLHGVWDPAYDYWGQGTQVTVSS | low polyreactivity |
| QVQLVESCGGIVQAGGSLRLSCAASGSTFRVNAMGWYRHSPGKERELVAAIRKSGGSTYADSVKGRFTISRDNAKNTFNLQMNSLKPEDTGVYYCNADATAWLGLADNYWVQGTQVTVSS | low polyreactivity |
| QVQLHESGGGLVQAGGGLRLSCASSGSISSTGFMGWYRQAPGKEREPVAAIAPGTTTYYADSVKGRFTIRRDNAKNTVYLQMNSLRPEDTAVYYCAVFTDNRVAFLYWGQGTQVTVSS | low polyreactivity |
| QVQLVESGGGLVQAGGSLRLICAASGLTFKSNTMGWYRQAPGKERELVAAISRSGGRTYYADSVKGRFTLSRDNAKNTVYLQMNSLKPEDTAVYYCAALYHTYLTWREDYWGQGTQVTVSS | high polyreactivity |
| QVQLVESGGGLVQAGGSLRLSCAASGSTFFTYAMGWYRQAPGKERELVAAISWSGGTTYYADSVKGRFTISRDNAKNTVYLQMNSLKPEDTAVYYCASDRDGILKANDYWGQGTQVTVSS | low polyreactivity |
| QVQLVASGGGLVQAGGSLRLSCAASGSTFRVNVMGWYRQAPGIERELVADITTSGGSTYYADSVKGRFTISRDNAMITVYLQINSLTPEDTAVYYCNTTYQSGWGPDMDYWGQGTQVTVSS | low polyreactivity |
| QVQLVESGGGLVQAGGSLRLSCAASGFTFRYYVMGWYRQAPGKERELVAAITSGGSTNYADSVKGRFTISRDNAKNTVYLQMNSLKPEDTAVYYCYAAYRSYGRFDYWGQGTQVTVSS | low polyreactivity |
| QVQLVDSGGGLVQAGGSLRLRCAASGITFLGNDMGWYRQAPGKERELVAAISSGSTNYADSVKGRFTISRDNANKTVDLQMNSLKPADPAVYYCAADIRGGLSNYSPKDYDYWGQGTQVTVSS | low polyreactivity |
| QVQLVESGGGLVQAGGSLRLSCAASGRIFSTYTMGWYRQAPGKEMELVAAIRANGGSTYYADSVKGRFTISRDNAKNTVYLQMNSLKPEDTAVYYCAALYRRYPYHYDSWGQGTQVTVSS | high polyreactivity |
| QVQLVESGGGLVQAGGSLRLSCAASGRTFGQNAMGWYRQAPGKERELVATITLNGGNTYYADSVKGRFTISRDNAKNTVYLQMNSLKPEDTAVYYCNAVPSWYRYRPPRFDYWGQGTQVTVSS | low polyreactivity |
| QVQLVESGGGLVQAVGSLRLSCAASGRTFDEYAMGWYRQAPGKERELVAAISTRGGSTYYADSVKGRFTISRDNAKNTVYLQMNSLKPEDTAVYYCAADYTKSSSPWPGYYWGQGTQVTVSS | high polyreactivity |
| QVQLVESGGGLVQAGGSLRLSCAASGGTFYTYAMGWYRQAPGKERELVAAISRSGGRTYYADSVKGRFTISRDNAKNTVYLQMNSLKPEDTAVYYCAAVRIARAVQDYDYWGQGTQVTVSS | high polyreactivity |
| QVQLVESGGGLVQAGGSLRLSCAASGFTFYKYAMGWYRQAPGKERELVAAISRRGTSTYYADSVKGRFTISRDNAKNTVYLQMNSLKPEDTAVYYCAAEIWSYPAYDYWGQGTQVTVSS | high polyreactivity |
| QVQLVESGGGLVQAGGSLRLSCAASGFIFYYDAMGWYIQAPGKERELVARIYSGRSTYYADSVKGRFTISRDNAKNTVYLQMNSLKPEDTAVYYCNATRLVWFSQGYDYWGQGTQVTVSS | high polyreactivity |

| Sequence | polyreactivity (PSR sort gate) |
| --- | --- |
| QVQLVESGGGLVQAGGSLRLSCAASGSIFSRNAKGWYRQAPGKERELVAAISRGANTYYADSVKGRLTISRDNAKNSVYLQMNSLKPEDTAVYYCAARIYKFPYTYDYWGQGTQVTVSS | high polyreactivity |
| QVQLVESGGGLVQAGGSLRLSCAASGSTFGSYAMGWYRQAPGKERELVAAISWNGGRTYYADSVKGRFTISRDNAKNTVYFQRNSLKPEDTAVYYCAKVVKYQSGGGLEYWGQGTQVTVSS | high polyreactivity |
| QVQLVESGGGLVQAGGSLRLICDASGRTFTDNAMGLYRQAPGKERELVAAISSSGDFYAESVKGRFTISRDNAQNTVYLQMNSLKPEDTAVYYCAARVWRYYYQSRFYYWGQGTQVTVSS | high polyreactivity |
| QVQLVESGGGLVQAGGSLRLSCAASGNIFYLNTMGWYRQAPGKERELVASISRDGGRTYYADSVKGRFTISRDNAKNTVYLQMNSLKPEDTAVYYCAAVVLHHFTEVGQHYYWGQGTQVTVSS | low polyreactivity |
| QVQLVESGGGLVQAGGSLRLSCAASGIILGYYAMGWYRQAPGKERELVAAITRSGGRTYYADSVKGRFTISRDNAKNTVYLQMNSLKPEDTGVYYCAADDPYTPQYPDVTYDYWGQGTQVTVSS | high polyreactivity |
| QVQLVESGGGLVHAGGSLRLSCAASGITFYLYTMGWYRQAPGKERELVATITSGASTSYADSVKGRFTISRDNAKNTFYLQMNSLNPEDTAVYYCAARRTRVTGRYSVYAFDYWGQGTQVTVSS | low polyreactivity |
| QVQLVESGGGLVQAGGSLRLSCAASGSILYPYAMGWYRQAPGKEREFVAAITYGGGRTYYADSVKGRFTISRDNEKNTVYLHMNSLKPEDTAVYYCAARYTYSYPLFGSWGQGTQVTVSS | high polyreactivity |
| QVQLVEAGGGFVQAGGSLRLSCAASGSIIVPYAMGWYRQPPGKESELVAAISSRGGRTYYADSVKGRFTISRENAMNSVYLQMNSLKPEDSAVYDCNKTGGSHIPRLEYWGQGTQVTVSS | low polyreactivity |
| QVQLVESGGGLVQAGGTLRLTCAASGRTFYRYVMGWYRHAPVKERELFAAINWSGGSTYYADSVKGRFTISRDNAKNTVYLQMNSLKPEDTAVYYCAADLYTLRYGYRYEYWGQGTQVTVSS | high polyreactivity |
| QVQLEESCGGLVQAGGSLRLSCAAYGRIFGNYAMGWYRQATGKETELVAAITRGSTYYADSVKGRFTISRDNSKNTVYLQMNSLKPEDTAFYYCNARPRVPGVLYLYDYWGQGTQVTVSS | high polyreactivity |
| QVQLVESGGGLVQAGGSLRLSCAASGSTFPSYAMGWYRPAPGKERELVAAINSGGGTNYADSVKGRFTISRDNAKNTVYLQMNSLKPEDTAVYYCAKSRYEYTKTEGGYWGQGTQVTVSS | low polyreactivity |
| QVQLVESGGGLVQAGGSLRLSCAASRSTFRDNAMGWYRQAPGKVRELVAGITRGGITNYADSVKGRYTISRDNAKNTVYLQMNSLKPEDTEVYYFAAEVTGTYYDYDYWGQGTQVTVSS | low polyreactivity |
| QVQLVESGGGLVQAGGSLRLSCAASGLIIYRYGMGWYRQAPGKERELVAAISYSGSSSYYADSVKGRFTISRDNAKNTVYLQMNSLKPEDTAVYYCAARHGPRSEAMYYWGQGTQVTVSS | high polyreactivity |
| QVHLVESGGGLVQAGGSLRLSCAASGITFTRYNMGWYRQAPGKERELVASIRRSGSTNYADSVKGRFTISRDNAKNTVYLQMNSLKPEDTAVFYCAAVNYGYPKPYDYWGQGTQVTVSS | high polyreactivity |
| QVQLVESGGGLVQAGGSLRLSCAASGSIFRGYTMGWYRQAPGKERELVAAISRSGGSTYYADSVKGRFTISRDNAKNTVYLQMNSLKPEDTAVYYCNVVYFVTTSPGYDYWGQGTQVTVSS | high polyreactivity |
| QVQLVESGGGLVQAGGSLRLSCAASGFTFFVSAMGWYRQAPRKERELVAVITSGGTTNYADSVKGRFTISRDIAKKTVYLQMNSLKPEDTAVYYCNGRGEKRGYYYWGQGTQVSVSS | high polyreactivity |
| QVQHVESGGGLVQAGGSLRLSCAASGLNFTRYVMGWYRQAPGKERELVAVISSGGSTYYADSVKGRFTISRDNAKNTVYLQMNSLKPEDTAVYYCAAYLRYSQVTYDYWGQGTQVTVSS | high polyreactivity |
| QDQLVESGRGLVQAGGSLRLSCAASGINIPVYAMGWYRKAPRKERELLAAISSGGSTYYADSVKGRFTISRDNAKNTVYLQMNSLKPEDTAVYYCAAATRSAKYRFGYWGQGTQVTVSS | high polyreactivity |
| QVRLVESGGGLVQAGGSLRLSCAASGFTFSPYAMGWYRQAPGKERELVAAITSSGGSTYYADSVKGRFTISRDNAKNTVYLQMNSLKPDDTAVSSCAKEIRYSSSVSESDYWGQGTQVSVSS | high polyreactivity |
| QVQLVESGGGLVQAGGSLRLSCAASGITFPGTVMGWYRQAPGKERELVAAISTSGGSTYYADSVKGRFTISRDNAKNTVYLQMNSLKPEDTAVYYCARQYIRSSYGYWGQGTQVTVSS | low polyreactivity |
| QVQLVESGGGLVQAGGSLRLSCDASGRIFGYYAMGWYRQAPGKERELVAAISDGGSTDYADSVKGRFTISRDNAKNTVYLQMNSLKPEDTAVYYCNADRLYLYNVEYDYWGQGTQVTVSS | low polyreactivity |
